The record followed here is patent US20250215092A1 (ZHEJIANG NANOMAB TECHNOLOGY CENTER, published 2025).

As usually defined, the EC50 is the midpoint of the concentration-response curve. Low readings indicate a more potent agent, high ones a less potent agent. As a reminder, the IC50 is the concentration needed to halve the response being measured.

Assay [1] has as its target T1, EGFR on SKOV3 and Aspc-1 tumor cells (human, UniProt P00533).
T1 construct: endogenous, on the cell surface; the cell line is named under assay; also called tumor cell EGFR
Description: flow cytometry on SKOV3 tumor cells, anti-human IgG PE, MFI, curve fit; unit from the concentration axis and paragraph 62 [table]. The procedure: (§1) Two kinds of tumor cells, SKOV3 and Aspc-1, expressing EGFR were respectively plated in 96 well plates, with 3×10⁵ cells per well, and then the tumor cells were incubated with gradient diluted VHH-IgG4 antibody. After incubation on ice for half an hour, anti human IgG PE (Jackson Immuno Research, Code: 109-117-008, Lot:145501) was added for incubation, and then CytoFLEX flow cytometry was used for detection. The EC50 of the antibody was calculated by curve fitting.
(A flow cytometer gives signals particle by particle.)

The target in assay [2] is T1, EGFR on SKOV3 and Aspc-1 tumor cells. Description: flow cytometry on Aspc-1 tumor cells, anti-human IgG PE, MFI, curve fit; unit from the concentration axis and paragraph 62; no upper plateau within the range shown [table]. On the procedure: as §1
For assay [3], the target named is T2, EGFR-D4 (F481-S645, P00533-1 (uniprot)) his tag antigen (human, UniProt P00533 481-645).
T2 construct: range 481-645; also called IV domain protein; EGFR-D4 protein; not shown: His tag
Description: ELISA: EGFR-D4 his tag antigen coated at 0.5 µg/mL, antibody at 2000, 200, 20, 2 nM, HRP goat anti-human IgG Fc, OD450. On the procedure: (2) Protein Binding Epitope Analysis: ELISA was used to determine the binding of VHH-IgG4 antibody to each domain of EGFR extracellular protein. Briefly, EGFR his tag protein, and EGFR-V3-his tag antigen protein were diluted to 1 μg/mL, EGFR-D1D2 (L25-A310, P00533-1 (uniprot)), and EGFR-D4 (F481-S645, P00533-1 (uniprot)) his tag antigen were diluted to 0.5 μg/mL, and each well of an ELISA plate was coated with […] antigen and incubated overnight at 4° C. The next day, the plates were washed twice with PBST (added with 0.5% TWEEN-20), then blocked with 3% BSA at 37° C. for 1.5 h, and then washed twice with PBST. Then, the antibody to be tested was diluted to 50 nM, 5 nM, 0.5 nM, 0.05 nM, and added to the wells coated with EGFR his tag protein or EGFR-V3-his tag antigen at 100 µL/well, respectively. The antibody was diluted to 2000 nM, 200 nM, 20 nM, 2 nM, and added to the wells coated with EGFR his tag protein or EGFR-V3-his tag antigen at 100 µL/well, respectively. The ELISA plates were incubated at 37° C. for 1 h. The plates were then washed three times with PBST, and then 100 μL HRP labeled Goat anti human IgG Fc antibody (1:10000, Bethyl) was added into each well, and incubated at 37° C. for another 40 min. After washing the plates four times with PBST, 100 μL of TMB substrate was added to each well, and the reaction was allowed to proceed for 3-5 min. The reaction was stopped by adding 100 μL of 3N hydrochloric acid per well. After stopping the reaction, the optical density at 450/650 nm was measured using a Tecan microplate reader.

The target in assay [4] is T1, EGFR on SKOV3 and Aspc-1 tumor cells. Kind of assay: flow cytometry on Aspc-1 tumor cells, anti-human IgG PE, MFI, curve fit; unit from the concentration axis and paragraph 62 [table]. On the procedure: as §1
Assay [5] deals with T3, human EGFR.His antigen (Acro, Cat #EGR-H522a) (human, UniProt P00533 25-645).
T3 construct: extracellular domain; Bought protein; also called EGFR his tag protein; full-length EGFR extracellular domain protein; not shown: His tag
Description: competition ELISA: EGFR his tag protein coated, antibody titrated together with Human EGF-mouse IgG2a Fc, bound EGF detected with HRP anti-mouse IgG, unit taken from the concentration axis (paragraph 62 says nM); OD450 falls only from about 2.4 to about 2.1 [table]. The procedure: (§2) Briefly, EGFR his tag protein was diluted with PBS to 2 μg/mL, and 100 μL of the antigen was added to each well of an ELISA plate and coated overnight at 4° C. The next day, the plates were washed twice with PBST (containing 0.5% TWEEN-20), and then blocked with 3% BSA at 37° C. for 1.5 h, followed by two washes with PBST. […] VHH-IgG4 antibodies were diluted to 2000 nM and then serially diluted 4-fold for 8 gradients. […] After washing 3 times, HRP goat anti-mouse IgG (Goat anti-Mouse IgG) (H+L) antibody (Abcam, cat #ab205719) diluted at 1:3000 was added to each well, and the plate was incubated at 37° C. for 40 min. The plates were then washed 3 times with PBST, and 100 μL of TMB substrate was added to each well and allowed to react for 3-5 min. The reaction was stopped by adding 100 μL of 3N hydrochloric acid per well. After stopping the reaction, the optical density at 450/650 nm was measured using a Tecan microplate reader. The dose-response curve was plotted, and the IC50 was calculated using GraphPad Prism 8.0 software.
(In general: ELISA stands for enzyme-linked immunosorbent assay.)

The target in assay [6] is T1, EGFR on SKOV3 and Aspc-1 tumor cells. Kind of assay: flow cytometry on Aspc-1 tumor cells, anti-human IgG PE, MFI, curve fit; unit from the concentration axis and paragraph 62; the curve is barely above Isotype 2: MFI at most about 1500 [table]. On the procedure:
as §1

Assay [7] has the same target. Description: flow cytometry on SKOV3 tumor cells, anti-human IgG PE, MFI, curve fit; unit from the concentration axis and paragraph 62; the curve is barely above Isotype 2: MFI about 1800 at about 250 nM, no plateau [table]. On the procedure:
as §1

Assay [8] concerns the target T3, human EGFR.His antigen (Acro, Cat …). Description: competition ELISA: EGFR his tag protein coated, antibody titrated together with Human EGF-mouse IgG2a Fc, bound EGF detected with HRP anti-mouse IgG, unit taken from the concentration axis (paragraph 62 says nM); the curve does not fall (OD450 about 2.4 to 2.65), no blocking, so the fit is not meaningful [table]. On the procedure:
as §2

For assay [9] the target is unchanged. Kind of assay: competition ELISA: EGFR his tag protein coated, antibody titrated together with Human EGF-mouse IgG2a Fc, bound EGF detected with HRP anti-mouse IgG, unit taken from the concentration axis (paragraph 62 says nM); OD450 falls from about 2.4 to a plateau of about 0.4 [table]. The procedure:
as §2

B1: E005 VHH-IgG4 antibody (antibody, V domains shown)
VH: QVQLVESGGGLVQPGGSLRLSCEASGFAFSDYTMRWHRQAAGKELELVAYITSAGDIIKYANSVRGRFTISRDNAKNTLYLQMDSLKPEDTAVYRCNALVSASVRASDYWGQGTLVTVSS
notes: VHH fused to IgG4 (VHH-IgG4), expressed in ExpiCHO, protein A purified; not shown: human IgG4 constant part from the pCDNA3.4-IgG4 vector
Turning to B1, the half-maximal effective concentration (EC50) in assay [1] was 9.7 nM; in assay [2], 15 nM.

B2: E007 VHH-IgG4 antibody (antibody, V domains shown, not shown: a dimerising Fc or GST)
VH: EVQLVESGGGLVQPGGSLRLSCEASGFSFSDHTMRWHRQAAGKNLELVAYITPAGDIIKYADSVQGRFTISRDNAKNMLYLQMDSLRPDDTAVYRCNALVSAAVRASDYWGQGTQVTVSS
Turning to B2, the EC50 is 14 nM in assay [1] and 39 nM in assay [2].

B3: E002 VHH-IgG4 antibody (antibody, V domains shown)
VH: QVQLVESGGGLVQAGGSLRLSCAASGFTFSDYAVSWYRQAPGKEREFVARITGTGETSRYEDSVKGRFAISRDNVKNTAYLQMNSLKPEDTAVYYCSIYHPPRDYWGQGTQVTVSS
notes: as for B1
For B3, in assay [3], the binding result is given as “no binding (tested: 2000 nM)”. Further, the values for the EC50 in assay [1] and in assay [4] were 2.3 nM and 3.7 nM, respectively. Moreover, the IC50 in assay [5] amounted to 0.038 µg/mL.

B4: E004 VHH-IgG4 antibody (antibody, V domains shown, not shown: a dimerising Fc or GST)
VH: EVQLVESGGGLAQSGGSLRLACEASGFPFETYAMSWARQTPGNEPEWVAGIFPDGKHTAYAHSVKGRFTISRVNANNTVYLQMDSLKPEDTAVYYCAKDLPFFATPSFYIGYWGQGTLVTVSS
With B4, the EC50 in [6] was 3.6 nM; in assay [7], 245 nM. This molecule also showed an IC50 in [8] of approximately 22.8 µg/mL.

B5: E003 VHH-IgG4 antibody (antibody, V domains shown, not shown: a dimerising Fc or GST)
VH: QVQLVESGGGLVQPGGSLRLSCVASGGVFSSYAMGWYRQVPGKLRELVATITSGHSTTYADIVRGRFTISRDNTKNTVYLQMNRLEPDDTAVYYCNRSPYTPGNWGQGTLVTVSS
As to B5, the 50% effective concentration (EC50) in assay [1] was found to be 6.5 nM; in assay [2], 17 nM. Further, the IC50 in assay [5] worked out at 0.084 µg/mL.

B6: E008 VHH-IgG4 antibody (antibody, V domains shown)
VH: EVQVVESGGGLVQSGGSLTLSCTSSGLPLLDYAIGWFRQAPGKEREAVSAISISEGSTYYTDSVRGRFTISRDNNKNKVYLRMDNLKPEDTAVYYCAADKTDIGFWLLVGGAGGGEVRYEYWGQGTQVTVSS
notes: as for B1
B6: the binding result in assay [3] is “no binding (tested: 2000 nM)”. Also, the EC50 in assay [1] amounted to 1.1 nM; in assay [4], 1.5 nM. Also, the half-inhibitory concentration (IC50) in assay [9] is 0.056 µg/mL.
